Assay results taken from patent US20240272170A1 (QUANTUM SI, published 2024).
Substitutions are numbered along the chain they refer to. Names and notes keep the numbering of the source. Read-outs that look alike come from different tables or passages of the source. Values belong to the binder of their own block, whether it stands above or below them. Non-standard residues stand in square brackets, D forms with d. No end group written: not given here. *: point of attachment. FITC = O=C1OC2(c3ccc(O)cc3Oc3cc(O)ccc32)c2ccc(NC(=S)*)cc21; Lys(N3) = [N-]=[N+]=NCCCC[C@H](N)C(=O)O; pT = C[C@@H](OP(=O)(O)O)[C@H](N)C(=O)O; Met(O) = CS(=O)CC[C@H](N)C(=O)O; Cit = NC(=O)NCCC[C@H](N)C(=O)O

Experiments:
[1] = target: peptide with N-terminal AK (lysine peptide of Example 12); assay: single-molecule dynamic sequencing on chip
[2] = target: peptide with N-terminal AK{acetyl} (acetyl-lysine peptide of Example 12); assay: single-molecule dynamic sequencing on chip
[3] = target: T1, target peptide Arg-Ala-Lys-Leu (RAKL); assay: purified protein:peptide complex, X-ray crystallography
T1 peptide: RAKL

[4] = target: T2, RA peptide (XAKLDEESILKQK-FITC, X = R); assay: fluorescence polarization titration, PS1122 0-5000 nM
T2 construct: also called peptide with N-terminal arginine
T2 peptide: RAKLDEESILKQK(FITC)
Method: (§1) Binding affinity was measured by polarization using a labeled peptide. The polarization response and total intensity measurements were carried out at 20° C. on a microplate fluorometer with 480 nm excitation and 530 nm emission. […] Multiple analyses were performed at increasing recognizer concentration at a fixed concentration of a target peptide to obtain a titration curve. An equilibrium polarization response at each concentration was plotted and fit to calculate the KD.
(§2) Fluorescence polarization assays were performed with all candidates, and single point binding responses were measured at a fixed concentration of the binders (FIG. 13A). […] We carried out multiple polarization binding titration analysis at increasing concentration of binder protein, and the Kds were determined from the titration curves (FIG. 13B).

[5] = target: T2, RA peptide (XAKLDEESILKQK-FITC, X = R); assay: fluorescence polarization titration, 20 C
Method: as §1, §2

[6] = target: T3, KA peptide (Octet assay of PS621 variants); assay: Octet (BLI), 30 C
T3 construct: XAKLDEESILKQK with X = K
T3 peptide: KAKLDEESILKQK

[7] = target: T4, HA peptide (Octet assay of PS621 variants); assay: Octet (BLI), 30 C
T4 construct: XAKLDEESILKQK with X = H
T4 peptide: HAKLDEESILKQK

[8] = target: T5, RS peptide (Octet assay of PS621 variants); assay: Octet (BLI), 30 C
T5 construct: RXKLDEESILKQK with X = S
T5 peptide: RSKLDEESILKQK
Description: (§3) Peptides of the sequence RXKLDEESILKQK (SEQ ID NO: 1076) were also used to evaluate the penultimate residue effect.

[9] = target: T6, RR peptide (Octet assay of PS621 variants); assay: Octet (BLI), 30 C
T6 construct: RX… with X = R
Description: as §3

[10] = target: T7, RF peptide (Octet assay of PS621 variants); assay: Octet (BLI), 30 C
T7 construct: RX… with X = F
Description: as §3

[11] = target: T8, RA peptide (Octet assay of PS621 variants); assay: Octet (BLI), 30 C
T8 construct: X… with X = R
Description: as §3

[12] = target: T9, RL peptide (Octet assay of PS621 variants); assay: Octet (BLI), 30 C
T9 construct: RXKLDEESILKQK with X = L
T9 peptide: RLKLDEESILKQK
Description: as §3

[13] = target: T10, RE peptide (Octet assay of PS621 variants); assay: Octet (BLI), 30 C
T10 construct: RXKLDEESILKQK with X = E
T10 peptide: REKLDEESILKQK
Description: as §3

[14] = target: T11, RQ peptide (Octet assay of PS621 variants); assay: Octet (BLI), 30 C
T11 construct: RX… with X = Q
Description: as §3

[15] = target: RL Peptide (stopped-flow); assay: stopped-flow rapid kinetics
[16] = target: RA Peptide (stopped-flow); assay: stopped-flow rapid kinetics
[17] = target: T12, HL Peptide (stopped-flow); assay: stopped-flow rapid kinetics
T12 construct: the text around it speaks of HA peptide

[18] = target: T13, labeled peptide X…-FITC with N-terminal valine (FITC on the C-terminal Lys); assay: fluorescence polarization; text of paragraph 337
T13 construct: also called VA peptide; valine peptide

[19] = target: T14, IA peptide (Octet assay of PS557 variants); assay: Octet (BLI), peptide on sensor, response after 200 s association
T14 construct: Peptide coated on the Octet sensor
Description: (§4) In the high-throughput assay, Octet sensors are coated with the peptide of interest and dipped in buffer containing the purified protein. An approximation of relative binding can be obtained by comparing the response after 200 seconds for each protein. Each protein has approximately the same molecular mass and is used at the same concentration, so ranking the proteins by response level in this assay gives an approximation of which proteins have improved binding. Studying the on and off-rate can also give insight into the mechanism of binding.

[20] = target: T15, YA peptide (Octet assay of PS557 variants); assay: as above
T15 construct: Peptide coated on the Octet sensor
Description: as §4

[21] = target: T16, FA peptide (Octet assay of PS557 variants); assay: as above
T16 construct: Peptide coated on the Octet sensor
Description: as §4

[22] = target: T17, WA peptide (Octet assay of PS557 variants); assay: as above
T17 construct: Peptide coated on the Octet sensor
Description: as §4

[23] = target: T18, MA peptide (Octet assay of PS557 variants); assay: as above
T18 construct: Peptide coated on the Octet sensor
Description: as §4

[24] = target: T19, LA peptide (Octet assay of PS557 variants); assay: as above
T19 construct: Peptide coated on the Octet sensor
Description: (§5) In the high-throughput assay, Octet sensors are coated with the peptide of interest and dipped in buffer containing the purified protein. […] Studying the on and off-rate can also give insight into the mechanism of binding.

[25] = target: T14, IA peptide (Octet assay of PS557 …); assay: as above; remark: listed apart in the source
Description: as §5

[26] = target: T16, FA peptide (Octet assay of PS557 …); assay: as above; remark: listed apart in the source
Description: as §5

[27] = target: T18, MA peptide (Octet assay of PS557 …); assay: as above; remark: listed apart in the source
Description: as §5

[28] = target: T20, AA peptide (Octet assay of PS557 variants); assay: as above
T20 construct: Peptide coated on the Octet sensor
Description: as §5

[29] = target: T21, VA peptide (Octet assay of PS557 variants); assay: as above
T21 construct: Peptide coated on the Octet sensor
Description: as §5

[30] = target: T22, AA Peptide (fluorescence polarization), AAKLDEESILKQ{LYS(FITC)}; assay: fluorescence polarization, FITC peptide titrated with protein
T22 peptide: AAKLDEESILKQK(FITC)

[31] = target: T23, IA Peptide (fluorescence polarization); assay: as above
T23 peptide: IAKLDEESILKQK(FITC)

[32] = target: T24, LA Peptide (fluorescence polarization); assay: as above
T24 peptide: LAKLDEESILKQK(FITC)

[33] = target: T13, labeled peptide X…-FITC with N-terminal …; assay: fluorescence polarization
[34] = target: T25, … after cleavage to N-terminal leucine (LIFAYPDDD) (not fully specified (C-terminus); also: C-terminal azidolysine linked to DNA-streptavidin); assay: single-molecule dynamic sequencing on chip
T25 construct: N-terminus exposed by aminopeptidases
T25 peptide: LIFAYPDDD

[35] = target: T26, synthetic peptide LCitLAFAYPDDDK; assay: single-molecule dynamic sequencing on chip
T26 construct: also called QP789
T26 peptide: L[Cit]LAFAYPDDDK

[36] = target: T27, RLMoFAYPDDD after cleavage to N-terminal leucine (LMoFAYPDDD) (not fully specified (C-terminus); printed as LMoFAYPDDD; also: C-terminal azidoLys linked to DNA-streptavidin); assay: single-molecule dynamic sequencing on chip
T27 construct: second population of traces, methionine oxidized
T27 peptide: L[Met(O)]FAYPDDD

[37] = target: T28, … after cleavage to N-terminal leucine (LAFAYPDDD) (not fully specified (C-terminus); also: C-terminal azidolysine linked to DNA-streptavidin); assay: single-molecule dynamic sequencing on chip
T28 construct: N-terminus exposed by aminopeptidases
T28 peptide: LAFAYPDDD

[38] = target: T29, … after cleavage to N-terminal leucine (LVFAYPDDD) (not fully specified (C-terminus); also: C-terminal azidolysine linked to DNA-streptavidin); assay: single-molecule dynamic sequencing on chip
T29 construct: N-terminus exposed by aminopeptidases
T29 peptide: LVFAYPDDD

[39] = target: T30, … after cleavage to N-terminal leucine (LMFAYPDDD) (not fully specified (C-terminus); also: C-terminal azidolysine linked to DNA-streptavidin); assay: single-molecule dynamic sequencing on chip
T30 construct: first population of traces, methionine not oxidized
T30 peptide: LMFAYPDDD

[40] = target: T31, RLpTFIAYPDDD after cleavage to N-terminal leucine (LpTFIAYPDDD); assay: single-molecule dynamic sequencing on chip
T31 construct: N-terminus exposed by aminopeptidases
T31 peptide: L[pT]FIAYPDDD[Lys(N3)]

[41] = target: T32, synthetic peptide LRLAFAYPDDDK (not fully specified (residue 12)); assay: single-molecule dynamic sequencing on chip
T32 construct: also called QP707
T32 peptide: LRLAFAYPDDDK-NH2

[42] = target: T33, … after cleavage to N-terminal leucine (LTFIAYPDDD); assay: single-molecule dynamic sequencing on chip
T33 construct: N-terminus exposed by aminopeptidases
T33 peptide: LTFIAYPDDD

[43] = target: T34, labeled peptide XAKLDEESILKQK-FITC with N-terminal methionine; assay: fluorescence polarization titration, FITC peptide (FIG. 9D)
T34 construct: also called MA peptide
T34 peptide: MAKLDEESILKQK(FITC)
Method: as §1

[44] = target: T35, target peptide Ala-Ala-Lys-Leu (AAKL); assay: purified protein:peptide complex, X-ray crystallography
T35 peptide: AAKL

[45] = target: T36, target peptide Met-Ala-Lys-Leu (MAKL); assay: as above
T36 peptide: MAKL

[46] = target: T37, labeled peptide X…-FITC with N-terminal leucine (FITC on the C-terminal Lys); assay: fluorescence polarization titration, recognizer 0-5000 nM, labeled peptide fixed
T37 construct: the sentence itself names only the N-terminal residue; also called LA peptide
Method: as §1

[47] = target: T38, labeled peptide XAKLDEESILKQK-FITC with N-terminal isoleucine; assay: as above
T38 construct: also called IA peptide
T38 peptide: IAKLDEESILKQK(FITC)
Method: as §1

[48] = target: T13, labeled peptide X…-FITC with N-terminal …; assay: fluorescence polarization titration, recognizer 0-4000 nM, labeled peptide fixed
Method: as §1

B3: PS621 (other)
chain: MHSKFSHAGRICGAKFKVGEPIYRCKECSFDDTCVLCVNCFNPKDHTGHHVYTTICTEFNNGICDCGDKEAWNHTLFCKAEEG
notes: UBR protein (UBR-box) parent of PS1101-PS1122
Octet response [6]: 5.2 | Octet response [7]: 2 | Octet response [8]: 7.1 | Octet response [9]: 6.3 | Octet response [10]: 8.4 | Octet response [11]: 9.3 | Octet response [12]: 10.2 | Octet response [13]: 5.8 | Octet response [14]: 7.4 | koff [15]: 17.7 s⁻¹ | koff [16]: 61.8 s⁻¹

B5: PS557 (other)
chain: MPTAASATESAIEDTPAPARPEVDGRTKPKRQPRYHVVLWNDDDHTYQYVVVMLQSLFGHPPERGYRLAKEVDTQGRVIVLTTTREHAELKRDQIHAFGYDRLLARSKGSMKASIEAEE
notes: tag of the purified construct not specified; also called wild-type protein; WT
Kd [18]: 1170 nM

B6: PS557 (other)
chain: B5 chain
notes: Natural ClpS parent protein; also called WT; wild-type protein
Octet response [19]: 8.79 nm | Octet response [20]: 0.0431 nm | Octet response [21]: 0.0096 nm | Octet response [22]: 0.0049 nm | Octet response [23]: 1.68 nm | Octet response [24]: 7.16 nm | Octet response [25]: 7.2 nm | Octet response [26]: 0.634 nm | Octet response [27]: 1.95 nm | Octet response [28]: 0.612 nm | Octet response [29]: 4.8 nm | Kd [30]: 10000 nM | Kd [31]: 289 nM | Kd [32]: 52 nM

B7: PS824 (designed binder)
chain: B5 chain with I12F, N41D, Q55R, V72M
notes: PS557 with I12F, N41D, Q55R, V72M
fold improvement of binding against the wild-type protein PS557 [33]: 5 fold

Next, values leading:

RS mean pulse duration (PD) [1]: 1.3 s | RS mean pulse duration (PD) [2]: 2.2 s
B1: PS1165 (other)
chain: MGLENSLETLRFSISNLSMQTHAARMRTFMYWPSSVPVQPEQLASAGFYYVGRNDDVKCFCCDGGLRCWESGDDPWVEHAKWFPRCEFLIRMKGQEFVDEIQGRYPHLLEQLLSG
notes: alanine recognizer

binding result [3]: binds | Kd [4]: 70 nM | Kd [5]: 70 nM
B2: PS1122 (designed binder)
chain: B3 chain with T47L, I63E, E70T
notes: PS621 with T47L, I63E, E70T; on chip labeled with streptavidin-tetraCy3

Octet response [6]: 6.5 | Octet response [7]: 3 | Octet response [8]: 8.5 | Octet response [9]: 6.7 | Octet response [10]: 10 | Octet response [11]: 10.8 | Octet response [12]: 11.8 | Octet response [13]: 7.6 | Octet response [14]: 9.1 | koff [15]: 14.4 s⁻¹ | koff [17]: 40.2 s⁻¹
B4: PS1115 (designed binder)
chain: B3 chain with T47R, F59R, T75E
notes: Variant of PS621

median pulse duration (PD) [34]: 2.22 s | median pulse duration (PD) [35]: 0.78 s | median pulse duration (PD) [36]: 0.35 s | median pulse duration (PD) [37]: 1.29 s | median pulse duration (PD) [38]: 4.21 s | median pulse duration (PD) [39]: 0.86 s | RS mean pulse duration (PD) [40]: 0.3 s | median pulse duration (PD) [41]: 0.43 s | RS mean pulse duration (PD) [42]: 1.2 s | Kd [43]: 947 nM | binding result [44]: binds | binding result [45]: binds | Kd [46]: 55 nM | Kd [47]: 68 nM | Kd [48]: 144 nM
B8: PS961 (designed binder)
chain: B5 chain with N41D, Q55R, E63S, L68M, V72M, Y100R
notes: PS557 with N41D, Q55R, E63S, L68M, V72M, Y100R; His/biotinylation tag of the assay construct is not specified; also called Planctomycetes ClpS variant
